# According to patent US20240392024A1 (SHANGHAI CELGEN BIO PHARMACEUTICAL, published 2024):
# Substitutions are numbered along the chain they refer to. “And” between values parts separate entries of the source, which are not always exact repeats. Identical values can stand only once.
# T1: TNFR2-His (Sino Biological, 10417-H08H, NP_001057.1 Met1-Asp257, with multi-histidine tag expressed on … (human, UniProt P20333 23-257))
# T1 construct: range 1-257; Bought protein; also called recombinant human TNFR2 protein; TNFR2-His antigen; not shown: C-terminal multi-histidine tag
# T1 sequence (looked up): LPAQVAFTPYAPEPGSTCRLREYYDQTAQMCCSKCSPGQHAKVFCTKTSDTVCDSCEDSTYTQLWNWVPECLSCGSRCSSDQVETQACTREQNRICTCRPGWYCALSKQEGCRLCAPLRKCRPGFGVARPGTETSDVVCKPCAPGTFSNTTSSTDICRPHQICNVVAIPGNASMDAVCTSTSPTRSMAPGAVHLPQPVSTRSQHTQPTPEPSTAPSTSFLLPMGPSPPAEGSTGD
# T2: human TNFR2 on the cell membrane (human, UniProt P20333 23-461)
# T2 construct: whole, on cells; One molecule for all cell formats; also called TNFR2-CHO cells; CHO-TNFR2
# T2 sequence (looked up): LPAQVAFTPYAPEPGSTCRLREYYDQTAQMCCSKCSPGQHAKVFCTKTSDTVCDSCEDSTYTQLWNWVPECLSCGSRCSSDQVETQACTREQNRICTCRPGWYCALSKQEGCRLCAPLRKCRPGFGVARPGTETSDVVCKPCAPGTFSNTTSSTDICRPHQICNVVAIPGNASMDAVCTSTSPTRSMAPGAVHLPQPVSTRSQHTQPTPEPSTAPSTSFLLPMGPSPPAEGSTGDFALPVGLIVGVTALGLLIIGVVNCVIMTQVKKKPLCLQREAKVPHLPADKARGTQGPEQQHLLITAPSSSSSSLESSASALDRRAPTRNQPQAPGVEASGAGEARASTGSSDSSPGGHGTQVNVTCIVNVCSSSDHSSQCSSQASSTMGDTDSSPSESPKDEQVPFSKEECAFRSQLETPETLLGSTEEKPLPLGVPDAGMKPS
# B1: 11G2huVH1 + huVL3(P07271) (antibody, V domains shown)
# VH: QVQLVQSGAEVKKPGASVKLSCKASGYTFITYDINWVRQAPGQGLEWIGWIYPRDGNTQFNENFKGKATMTVDESTSTAYMEVRSLRSDDTAVYYCARGDRDYGYFDVWGQGTTVTVSS
# VL: DIQMTQSPSSLSASVGDRVTITCQASQDISNYLNWYQQKPGKAPKLLIYFKSKLETGVPSRFSGSGSGTDFTFTISSLQPEDIATYYCQQGNTLPLTFGGGTKLEIK
# notes: Humanized 11G2
# B2: 11G2huVH4 + huVL2(P07269) (antibody, V domains shown)
# VH: QVQLVQSGAEVKKPGASVKVSCKASGYTFITYDINWVRQAPGQGLEWIGWIYPRDGNTQYAQKFQGRVTMTTDTSTSTAYMELRSLRSDDTAVYYCARGDRDYGYFDVWGQGTTVTVSS
# VL: B1 VL with Q24R, E55H, T56S, F73L, I83F
# notes: Humanized 11G2
# B3: 11G2huVH2 + huVL3(P07272) (antibody, V domains shown)
# VH: B2 VH with Y60F, A61N, Q62E, K63N, Q65K
# VL: B1 VL
# notes: Humanized 11G2
# B4: 11G2huVH5 + huVL3(P07275) (antibody, V domains shown)
# VH: B2 VH with P41T, T72R, D73N, T76I, R84S, D89E
# VL: B1 VL
# notes: Humanized 11G2
# B5: 11G2huVH4 + huVL3(P07274) (antibody, V domains shown)
# VH: B2 VH
# VL: B1 VL
# notes: Humanized 11G2
# B6: 11G2huVH3 + huVL3(P07273) (antibody, V domains shown)
# VH: B2 VH with P41T, Y60F, A61N, Q62E, K63N, T72R, D73N, T76I, R84S, D89E
# VL: B1 VL
# notes: Humanized 11G2
# B7: 11G2huVH5 + huVL2(P07270) (antibody, V domains shown)
# VH: B2 VH with P41T, T72R, D73N, T76I, R84S, D89E
# VL: B1 VL with Q24R, E55H, T56S, F73L, I83F
# notes: Humanized 11G2
# B8: 12E12huVH4 + huVL4(P07291) (antibody, V domains shown)
# VH: EVQLVQSGAEVKKPGATVKISCKVSGFNIKDFYIHWVQQAPGKGLEWIGRVDPEDGNTEYAPNFQDRVTITADTSTDTAYMELSSLRSEDTAVYYCSTWDGFSYFDYWGQGTTVTVSS
# VL: EAVVTQSPATLSLSPGERATLSCRSSTGPVTTNNYANWVQQKPGQAFRGLIGGTNDRAPGIPARFSGSGSGTDTTLTISSLQPEDFAVYYCALWYRNHWVFGGGTKLEIK
# notes: Humanized 12E12
# B9: 12E12huVH3 + huVL2(P07282) (antibody, V domains shown)
# VH: B8 VH with E1Q, T17S, I20V, Q38R, I48M, P62Q, N63K, D66G, I70M, A72T
# VL: QAVVTQEPSLTVSPGGTVTLTCRSSTGPVTTNNYANWVQQKPGQAFRGLIGGTNDRAPGVPARFSGSLLGGKAALTLSGAQPEDEAEYYCALWYRNHWVFGGGTKLTVL
# notes: Humanized 12E12
# B10: 12E12huVH5 + huVL2(P07286) (antibody, V domains shown)
# VH: B8 VH with P62E, N63K, D66G
# VL: B9 VL
# notes: Humanized 12E12
# B11: 12E12huVH3 + huVL4(P07290) (antibody, V domains shown)
# VH: B8 VH with E1Q, T17S, I20V, Q38R, I48M, P62Q, N63K, D66G, I70M, A72T
# VL: B8 VL
# notes: Humanized 12E12
# B12: 12E12huVH5 + huVL4(P07292) (antibody, V domains shown)
# VH: B8 VH with P62E, N63K, D66G
# VL: B8 VL
# notes: Humanized 12E12
# B13: 12E12huVH1+huVL1(P07277) (antibody, V domains shown)
# VH: B8 VH with T17S, I20L, K23T, Q38R, K43Q, V68A, I70M, A72T, D77N, M81L
# VL: B9 VL with L69I, G71D, A73T, A80V
# B14: 12E12huVH2+huVL1(P07278) (antibody, V domains shown)
# VH: B8 VH with E1Q, T17S, I20V, Q38R, K43Q, V68A, I70M, A72T, D77S, M81L
# VL: B9 VL with L69I, G71D, A73T, A80V
# B15: 12E12huVH4+huVL2(P07284) (antibody, V domains shown)
# VH: B8 VH
# VL: B9 VL
# B16: 12E12huVH2+huVL2(P07279) (antibody, V domains shown)
# VH: B8 VH with E1Q, T17S, I20V, Q38R, K43Q, V68A, I70M, A72T, D77S, M81L
# VL: B9 VL
# B17: 12E12huVH3+huVL1(P07281) (antibody, V domains shown)
# VH: B8 VH with E1Q, T17S, I20V, Q38R, I48M, P62Q, N63K, D66G, I70M, A72T
# VL: B9 VL with L69I, G71D, A73T, A80V
# B18: 12E12huVH2+huVL4(P07289) (antibody, V domains shown)
# VH: B8 VH with E1Q, T17S, I20V, Q38R, K43Q, V68A, I70M, A72T, D77S, M81L
# VL: B8 VL
# B19: 12E12huVH1+huVL4(P07288) (antibody, V domains shown)
# VH: B8 VH with T17S, I20L, K23T, Q38R, K43Q, V68A, I70M, A72T, D77N, M81L
# VL: B8 VL
# Target: T1, TNFR2-His (Sino Biological, 10417-H08H, …)
# Assay: ELISA, coated TNFR2-His
# In short: (§1)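 EC50 was obtained from a dilution series in an ELISA format. Blocked plates carried recombinant human TNFR2 with a C-terminal His tag, and serially diluted antibodies were incubated on them. An enzyme-labelled anti-IgG secondary antibody followed. Plates were then developed with TMB and read on a microplate reader.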
row,EC50 [nM],Binder
1,0.479,B1
2,0.364,B2
3,0.576,B3
4,0.149,B4
5,0.5,B5
6,0.521,B6
7,0.353,B7

# Target: T2, human TNFR2 on the cell membrane
# Assay: flow cytometry, CHO-TNFR2 cells
# In short: (§2)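 EC50 values come from flow cytometry of serially diluted antibodies binding CHO cells that stably overexpress human TNFR2. After incubation in 96-deep-well plates, the cells were washed, stained with a fluorescent anti-IgG secondary antibody and read on a Beckman CytoFLEX.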
row,EC50 [nM],Binder
1,0.183,B2
2,0.056,B4
3,0.226,B5
4,0.162,B7

# Target: T2, human TNFR2 on the cell membrane
# Assay: flow cytometry on CHO-TNFR2 cells
# In short: as §2
row,EC50 [µg/mL],Binder
1,0.0273,B2
2,0.0084,B4
3,0.0338,B5
4,0.0242,B7

# Target: T2, human TNFR2 on the cell membrane
# Assay: flow cytometry on CHO-TNFR2 cells
# Remark: another data set of the same source
# In short: as §2
row,EC50,Binder
1,0.0215 µg/mL and 0.144 nM,B8
2,0.0203 µg/mL and 0.136 nM,B9
3,0.149 µg/mL and 1 nM,B10
4,0.0367 µg/mL and 0.246 nM,B11
5,0.0329 µg/mL and 0.221 nM,B12

# Target: T1, TNFR2-His (Sino Biological, 10417-H08H, …)
# Assay: ELISA, plate coated with TNFR2-His
# In short: as §1
row,EC50 [µg/mL],Binder
1,0.0715,B1
2,0.0544,B2
3,0.0859,B3
4,0.0222,B4
5,0.0746,B5
6,0.0778,B6
7,0.0527,B7

# Target: T1, TNFR2-His (Sino Biological, 10417-H08H, …)
# Assay: BLI, antibody captured on AHC probe, TNFR2 in solution
# In short: (§3)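 Kon, koff and Kd values come from kinetic association measurements made by bio-layer interferometry (Octet, Basic Kinetics mode). Antibody-capture sensors carrying antibodies at 50 nM in Q buffer (10 mM PBS pH 7.4, 0.02% Tween 20, 0.2% BSA) were placed in recombinant human TNFR2, diluted 2-fold in the same buffer from a top concentration of 100 nM.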
Kd [nM],koff [s⁻¹],kon [M⁻¹ s⁻¹],Binder
4.84,0.00379,782000,B8
6.38,0.00487,764000,B9
1.71,0.00197,1.15e+06,B10
5.03,0.00407,810000,B11
3.14,0.0034,1.08e+06,B12

# Target: T1, TNFR2-His (Sino Biological, 10417-H08H, …)
# Assay: ELISA, plate coated with TNFR2-His (first test)
# In short: as §1
row,EC50,Binder
1,0.0606 µg/mL and 0.406 nM,B13
2,0.0416 µg/mL and 0.279 nM,B8
3,0.045 µg/mL and 0.301 nM,B9
4,0.0754 µg/mL and 0.505 nM,B10
5,0.0614 µg/mL and 0.411 nM,B14
6,0.049 µg/mL and 0.328 nM,B15
7,0.0687 µg/mL and 0.46 nM,B16
8,0.0596 µg/mL and 0.399 nM,B17
9,0.059 µg/mL and 0.395 nM,B11
10,0.0672 µg/mL and 0.45 nM,B18
11,0.0739 µg/mL and 0.495 nM,B19
12,0.0533 µg/mL and 0.357 nM,B12

# Target: T1, TNFR2-His (Sino Biological, 10417-H08H, …)
# Assay: BLI, antibody captured on AHC probe, TNFR2-His in solution
# In short: as §3
Kd [nM],koff [s⁻¹],kon [M⁻¹ s⁻¹],Binder
8.4,0.00251,299000,B1
13.5,0.00379,281000,B2
10.6,0.00293,276000,B3
14.1,0.00302,213000,B4
20.1,0.00511,254000,B5
10.2,0.00255,249000,B6
8.13,0.00265,326000,B7
